In PMC7111312 (Virology, 2019):

Molecular target: the molecule itself
Experiment: crystal structure

B1: Wild type CavV 3CLpro (Cavally virus 3C-like protease) (enzyme, Cavally virus (CavV), UniProt F8RL29 1387-1700, looked up)
chain: SAASNPSISHIVLEMPVAINPLIKYTTRTSVSSLRGAVVNGYIYIQRHLFGSKKQEFEACYNNGKGLLNCKNLERSKYDIDSAELIGTLIRIPLHDKHSIPHISIHPDPLSYNGPVTLYLSRYDTELNKDVLCVHTGFMSEGHHDIKTVFGDCGGMLFDPKGRLLGLHCAGSDDVVFMDTTTGKSNIWTSYKLQHPSEIMITLNNEINLPNPANYDFETTKVVYQHPLRNVCATLETLQHLTNKTNAKLPYDSRLLSDFNITAEQYNQYGYYIDYNNFVNNFNRYTTTTIGTKSFETCIKYGLMDNKKPDYYNQ
stoichiometry N: 2
